Common to all, as to assay: cell_activity
For data set [1], the system named is eZFN2 zinc finger nuclease (FokI). Particulars: maize; two identical sites flanking aad-1 cassette; 23 of 621 plants.
The test system of data set [2] is eZFN4 zinc finger nuclease (FokI). The settings on record: soybean F1, AtUbi3 promoter; chimeric 4.43%; with CsVMV promoter 0.00% complete, 1.58% chimeric.
Data set [3] has as its system eZFN4-HF zinc finger nuclease (high fidelity FokI). Particulars: soybean F1, AtUbi10 promoter; chimeric excision 10.68%.
The subject of data set [4] is eZFN14 zinc finger nuclease (FokI). The settings on record: soybean F1, CsVMV promoter; complete excision 0.00%.

“AAGACTCCCGCCCATCTCTCTATGCCCGGGACAAGTG (double strand) [eZFN2 binding site]” gave an activity (% F1 plants with aad-1 excised) in data set [1] of 3.7. As for “GCCTTTTGCAGTTTATCTCTATGCCCGGGACAAGTG (double strand) [eZFN4 binding site]”, the activity (% complete excision) in data set [2] turned out to be 0.13; in data set [3], 1.23. As to “TGGTCATCCTCATCCTGTCTATGCCCGGGACAAGTG (double strand) [eZFN14 binding site]”, in data set [4], the activity (% chimeric excision) is 2.82.

Source of the values: patent publication US20180163218.
